Laboratory results as given in the DeepSol protein solubility set.

Experiment: soluble on expression in E. coli; label from the status in PepcDB or PDB records

Row | Sequence | soluble on expression in E. coli
1 | MSLVTFSIRIISSDRIFLVAEVKALERVYVIGHKNPDTDSVCSAIGYAHFKNNVEKGKTFIPARSGDLTNESLFVLKYFGMNPPLHIETLEPTVEDLELKNPIFVTPDTSAYDVAMLMESRGIKNVPVVSKEKMIGVVTESNIARVYVRRLKIEPLVIHPVPFDQLVRILKAEVVCDYMKEKTVSGKVHIAVDALHVLLGKIEIGDVVIVGDNEPAQIALLEKGAKLMIVVNNAPVSNRVLEIAKEKNAAVLRVKFDAFSAAKLINLSLPVTLVMSKKFPTVTKKDTLEEVKEIVFTSKIRAAFVEDEKGRLCGVITRTDLLKDVRKKVILVDHNEITQAPEGVEKAEILEIIDHHRLGGLSTLNPVFFYNEPVGSTSTIVAEFFLKNGVKMEREIAGILLSGIVSDTLFFKLSTTTEKDRKMANFLADVAKLDLEKFAKKLLKEGMKIPEDVDPAELLKRDVKVYEMGEESFAVSQIMTSDFSTLLKEKERFMNTLKTLKGEFGVKHFFVLFTNPVEEASLLMMDGDQKLVEKAFNAEKKDGLFLLKGVMSRKKDFVPKIGEVLRREREGHHHHHH | soluble
2 | MFLRYMRRRGSGEDHEEEPRGVTVIATKVAENSKNPRRYSLVHQASCETQHHKGIRRQNTIQHRKQLTDQMRCQKILQQLNDEGIEVIFTANDVTPIEFSIILTSTDPTLSNFVSDILQNMSSAKVQICHVETRGNEASHDVLLACKATKNQLIHSAELLTQNHVALTKFSIFAKKLSDEKNQSQIWFPRHISELDQCSKCITKYEPTTDPRHPGHGDVAYIARRKFLNDQALEFKFGDEIGYVDYTEEEHATWKAVYEKLGDLHLSHTCAVYRQNLKILQEEKVLTADRIPQIRDVNKFLQKKTGFELRPCSGLLSARDFLASLAFRVFQTTTYLRHHKSPHHSPEPDLIHELLGHVPMFSDPLLAQMSQDIGLMSLGASDEHIEKLSTVYWFIVEFGLCKEDGKLKAIGAGLLSAYGELMHACSDAPEHKDFDPAVTAVQKYEDDDYQPLYFVADSIHDALAKLRKYASSMDRPFSVVYDPFTKSIEAIESSADLEKAFSRLSNDLSAITHAADRMKISITM | not soluble
3 | MPLGSLFDKTYDEMHCNQKSWEMAERQLMEDAVNVALQKNNLTKDDIDLLLAGDLLNQNVTANYVARHLKIPFLCMFGACSTSMETVAVASALVDGGFAKRALAATSSHNATAERQFRYPTEYGGQKPDTATSTVTGSGAVVISQTPGDIQITSATVGKVSDLGITDPFDMGSAMAPAAADTIKQHFKDLNRTADDYDLILTGDLSGVGSPIVKDILKEDGYPVGTKHDDCGLLIYTPDQQVFAGGSGCACSAVVTYSHIFKQLREGKLNRVFVVATGALLSPTMIQQKETIPTIAHGVVFERAGGASLEHHHHHH | not soluble
4 | MGSDKIHHHHHHMFSKKVKWEETMTYKSIRALERGIDVLQYLNTVKGAAPPEIAENVNLPRPTVHRILETLSELNLVYRSQLGDEYRLSSGVQRLAGNRSSVRLNWIDEIALPALLELTSEIIWPSDIAVCHKAAMIIQGTTHRISPMSCDVGMVGNRRSMLMSPLGRAYLSHCPDDELKSILCALNASSASEDKGARDRAFIKEIIETGRRDGVSACNERPHPRCASLAAPIRLNGKVLACMNVVWRANMLTIEDAMDQIRDPLLATRDRIEAQLHEQFARPALGSTSFPETYTLRTGTRDRLPHSLALA | not soluble
5 | MGSDKIHHHHHHMNIGLLEALDQLEEEKGISKEEVIPILEKALVSAYRKNFGNSKNVEVVIDRNTGNIKVYQLLEVVEEVEDPATQISLEEAKKIDPLAEVGSIVKKELNVKNFGRIAAQTAKQVLIQRIRELEKEKQFEKYSELKGTVTTAEVIRVMGEWADIRIGKLETRLPKKEWIPGEEIKAGDLVKVYIIDVVKTTKGPKILVSRRVPEFVIGLMKLEIPEVENGIVEIKAIAREPGVRTKVAVASNDPNVDPIGACIGEGGSRIAAILKELKGEKLDVLKWSDDPKQLIANALAPATVIEVEILDKENKAARVLVPPTQLSLAIGKGGQNARLAAKLTGWKIDIKPIMNL | not soluble
6 | MSLAMINDSIEQVWRDFSIRPAAEADDATWCRRVYLDVIGRIPSLEELSEFMSDRDSNKRANLVDRLLNDDRYTEEYANHWSTVWTNLLIGRSGGTDRRDLTNRTGMQKYLRDSFAGNKTYDQMTYELVTAEGSTTPGNANFNGAVNFLVDKVNAEKGTLATSSVSRIFLGQQVQCTQCHNHPFNQWKQQKFWEFNAFFRQTRALRRFVDGTQDIESAELVSQDFAGEANDPEDALVFYELRNGLQKVAYPVFTDGTEIEKSGFVEDVNRREELGRLMLQSEYLDKMIVNRMWSMFLGYGFTRPIDDLGPHNPSSHPELLENLGKEFRANSYDLKKLITWITLSRPYQLASTLSASNEIDDPTIGESPKFSRFYLRQMSAEQLYASMVTASNAQSKGSYEQQEAERRRWLSQFVVAFGNDEGTETTTFNGSIPQALMLFNGDLTKNAISLEAGSFLDQLSQTGRSPKDRVTRLFLSGLARRPTKNEVSIASKLLVARKGDEPEMLQDMWWAILNSNEFIMQHEGHHHHHH | soluble
7 | GMSGDILNDIVAACLELERKASSVFKMFAAHAGSDEARRFWETVADETRHHSAVYERLQERGGRENLPIIIYKPAETLEELEMIGKSIDEQVERYTEAPSSEAACLLGFRLQLYLLHPAFASLCRLTRDASGEDLPDIGYGRYLRRFIDGIGSCGLATAETELLGEALFRLWNEARQLAAQSHFDALTGVMTRAGFFKTVGSLAYAAQRSGSNVGIMLIDLDYFKLVGDNYGHQTGDRILQLVAETITSHLRRSDVVGRYDGDEFVVYLSPVEPASLRTVAENLRRSIEEESARMVPVTASIGVAQGILGTDVDGGIEELVRLADECLMQAKYTGKNKVVVK | soluble
8 | TSSDTQNNKTLAAMKNFAEQYAKRTDTYFCSDLSVTAVVIEGLARHKEELGSPLCPCRHYEDKEAEVKNTFWNCPCVPMRERKECHCMLFLTPDNDFAGDAQDIPMETLEEVKASMA | soluble
9 | GPGSMPSLANGLRCPDALITRTLNPLLNGPKFAVIYCGNHQYKVAVGDVIAVQRLRVEIGSHIALKKVLMVGGPRFTAIGRPLLEGVRVTAQVEEQKRMRNVVSLFATPGRRHVRWVDAPHAATVIRICEIFYSPNVVGELDKYKGELLETFTPGQHTNPVYPVDDGYDVFRKKDKEAMENATTFLDLLGGV | not soluble
10 | MDEGMQIVGAVSGLSTPFNQNVSLECYNGILSMLLNGAPLADILHALVLKIEDQRLGTHASVLLLSEDGKRVLTGAAPHLPDSYNQVIHGVEIGPEVGSCGTAAYTGQRVIVEDIEHHPYWALYKSFALVHGLRACWSEPIKDTQGKVLGTFAMYYKEIKSPTVADLTLIAEAARLASLAIERSRSLEFQRLAVKIFDRLPLALVITNASHSVLYANDAFKLMVCLQPDDILAFNPEQFFSPSEPHEIASLFNHLSEGKMWQGELVGLRNNGETFYLDLTVTVFRESHSADLGFAWLFSDVSERKKAAQLIKYQANNDSLTGLANRNALFRQIQELINADSLTPGFSFMLMDLDNFKQVNDTYGHDKGDVLLVQMVEQVKICLDPQAVFARLGGDEFAILLPGVVTQRELSQLADKINKQVYRRYELSHDKGVYSSVSIGIARFPEDALDLEQLLNCADQAMYISKANGRNRYHFFTEQMQQNAERIANLHTLLKQALEQNAFELYFQPIVDATTGLIVRAEVLLRWQHEGQFISPDEFIPIAENSGLIVSIGRCVRQAVMQTIVEMQALGWPMSLAINVSTFEFWSHELQDEFCDSFTDIIEGLGVEDFPYELITLEITESLLMKKHAHLIQVLNELRARGIKISLDDFGTGYSSLSYLANFPIDQIKIDKSFIDRLAEGERHLALIEAIVRLSHALNLRVTAEGVETQEQLQVMMDNHIQEIQGYLFYKPIPKAVFFELLAKQAVISPHSLEHHHHHH | not soluble
11 | QPTAQQQLTKPAKITCANCKKPLQKGQTAYQRKGSAHLFCSTTCLSSFS | soluble
12 | MYNDDELTEFMDFLVEQTKDSIYPMVAAKVFKQFPNRRLIPKDKRYQRFVLQLAPKMNDWNNYSIEARIRLMYALRGKVEDDFLARIEAHGTVQLNEKQRISKFTANDGTFFLEDDRKRLSLDATRLEFVKLMGFLIEKTKDAVEPLPNTKLIFQEFSQIEPVKKPNDTDIMYKFRSSLAPYMDKWNDYSIEDRVRLMFALGGKIKDGFLRTIETHGTLQLDDKRRITKYVSNDGNFKLEGIRRNVHKKEATGPEYTRFMDFLIKTTKEAVEPMRVWLVHNEFKRQEGRKFSKSGYAKRFHKKLAPNMSKWTNYKIEERTRMMFAMKGKVESDFLAQIEESGKVQLDENHLIVKYTSKNRKIKLGGETRLVEKKKRKSTNYHKMHQKRRKIIRSVTDETSLVAKWKRKSDSYYEMYQKRRKIGEKELSDTAEVEEVAPYDSDYGNVYVENLEAEDQDTQLNPFNAMSDLTTDGPSSNAHDLTMWPNDDPKQEPVFENIFIQNQYFPPEIEEVPNQGVYHVEPETKLSYINTNPGSSVTESGGIKLHKFLNLLELILTSLESDTLDDLLNDIEGIRVRINDEILPPELVITALQTFLLGITRKSRSAASAENKSSHECLRIFKYSLPWLRSPLLWELQQRVEEEIESHVIGGKIILVADVQQGIRNILFAVSN | not soluble
13 | MGSDKIHHHHHHMKKLFLVLAVLSLVLYGCLRTPPVVKDMVTTDGSLSDWGSKIKEDAADDSKWGADNELLKAGLLFDGANIYIAGEYVIGGDGNVNVFLVLIDLVGVTGAQTVSYTGLNDGNRNFTNPNGDIDLIVEVNQSNEYKVWRVSQDGSLTDITDQVTAQFGTGSTIAELKIPISEQVNQVKAVFAISGGTGGGNQWVGDFYPNQPDHDSAENGGIPQPAPVVNFVVCDKEGNVSEEINQTSEPEQPTESVIVVDGDLSDFGTPVATSTNPGGGNGANLYRLYVTYDATYLYIGFDTQNSGSWDVAYGIGIDTKPSGYTGDSDAWGRKISFGADYAVDYEIYFWWAGGSGLDSNNFCEWNGLDWNYRSIADAGGTFDYTGDTSSGLQTMEIAIPWSAIGGKQDVALIVWITGGSGSAVDSIPDDDSTIDNADEWNDSDTFTNLYLLQVN | not soluble
14 | MSLKTIAFDSNKYLNLQRDHILERISQFDGKLYMEFGGKMLEDYHAARVLPGYEPDNKIKLLKELKEQVEIVIAINANNIEHSKARGDLGISYDQEVFRLIDKFNTLDIYVGSVVITQYNNQPAADAFRKQLEKNGIASYLHYPIKGYPTDINHIISSEGMGKNDYIKTSRNLIVVTAPGPGSGKLATCMSQMYHDQINGVKSGYAKFETFPVWNLPLHHPVNLAYEAATADLDDVNMIDPFHLETYGKTAVNYNRDIEVFPVLNRTFERILSKSPYASPTDMGVNMVGFSIVNEEAAIEASKQEIIRRYYQTLVDFKAERVTESAVKKIELLMNDIGVTPDDRHVTVAAHQKAEQTGQPALALQLPNGQIVTGKTSGLFGPTAAVIINAIKTLAKIDKTTHLIEPEYVKPIQGLKVNHLGSHNPRLHSNEILIALAITAMTSEEANLAMKELGNLKGSEAHSTVILTEEDKNVLRKLGVNITFDPVYQHHKLYRKEGHHHHHH | soluble
15 | MLFKTIFYQKLQKKVTTLFNLETERVIREIENLNKNNPKVIFQAPEGLKLKVEKEIEKIKQYFKQKNINIEIYLWGNTCFGACDLIDNHVKNLNVDLIIHYGHEKLSYANPEIKTLFIPAYHIFNKDEEEKILNDIKNFIEKHKSGGKKVAIATTIQYKKLLKDFNPSIILGCRGEVKEGDVILFVGTGRFHPLMIAYKYQKEVFIYNPLSKCFDKISEEEINKFIKKRILAISKLLLNKPKKVGVVLSTKKGQCRKRVFDEIIKLLEENDVNYLPILVDNISPDILFYDVDCYIIVACPRIVLDDYILYKKPIYTPEEFKLFLKNSFKYKFDEIKEDDFLEHHHHHH | soluble
16 | MNKKEIFKLAKGFRGRAKNCIRIARERVEKALQYSYRDRRNKKREMRGLWIERINAGSRQHGVNYGNFIHGLMKENIQLNRKVLSELSMHEPYSFKALVDVSRKSFPGNKNVVQASRKVDISSINA | soluble
